Assay results: paper PMC5397045, “Biochemical and molecular characterization of the isocitrate dehydrogenase with dual coenzyme specificity from the obligate methylotroph Methylobacillus Flagellatus” (PLoS ONE, 2017)

Columns and labels:
[1] = target: recombinant 6x-His-tagged isocitrate dehydrogenase from Methylobacillus flagellatus (Methylobacillus flagellatus ATCC51484); assay: SEC; HiLoad 10/300 Superdex 200, 0.05 M potassium phosphate buffer pH 7.0, 0.15 M NaCl, 0.01% sodium azide, 0.5 mL/min; calibrated with standards of 29-669 kDa
MfIDH = target: T1, MfIDH (Methylobacillus flagellatus, UniProt Q1GZD1); assay: NAD(P)H formation at […] nm; assay type: biochemical; conditions: read-out: % inhibition at 2 mM
T1 construct: gene Mfla_2139; native enzyme purified from M. flagellatus cells, untagged; 413 residues; homodimer (recombinant N-terminal 6xHis form said to be essentially the same)
T1 sequence (Q1GZD1 1-413): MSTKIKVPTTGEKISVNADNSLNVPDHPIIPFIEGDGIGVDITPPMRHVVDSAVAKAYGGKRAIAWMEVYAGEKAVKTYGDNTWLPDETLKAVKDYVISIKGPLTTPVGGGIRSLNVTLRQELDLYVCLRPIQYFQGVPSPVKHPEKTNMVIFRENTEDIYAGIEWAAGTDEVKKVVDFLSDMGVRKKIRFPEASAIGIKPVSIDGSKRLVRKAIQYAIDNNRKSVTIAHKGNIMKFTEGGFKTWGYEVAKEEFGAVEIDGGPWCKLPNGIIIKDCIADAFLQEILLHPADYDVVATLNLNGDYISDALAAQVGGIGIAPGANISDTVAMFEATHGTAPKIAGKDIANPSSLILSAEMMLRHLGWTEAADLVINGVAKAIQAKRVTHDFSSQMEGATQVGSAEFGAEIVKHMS

[2] = target: native isocitrate dehydrogenase from Methylobacillus flagellatus (Methylobacillus flagellatus ATCC51484); assay: native gel or EMSA; gradient non-denaturing PAGE (4-20%, w/v), protein stain and zymogram staining for NAD+- and NADP+-dependent activity; band compared with protein markers
purified protein [3] = substrate: O=C(O)CC(C(=O)O)C(O)C(=O)O; assay: purified protein; assay type: biochemical, Methylobacillus flagellatus; conditions: cosubstrate NAD+ (saturating), Mn2+, 100 mM Tris-HCl pH 8.5, 42°C, pH 8.5
purified protein [4] = substrate: NC(=O)c1ccc[n+]([C@@H]2O[C@H](COP(=O)(O)OP(=O)(O)OC[C@H]3O[C@@H](n4cnc5c(N)ncnc54)[C@H](O)[C@@H]3O)[C@@H](O)[C@H]2O)c1; assay: purified protein; assay type: biochemical, Methylobacillus flagellatus; conditions: saturating DL-isocitrate, Mn2+, 100 mM Tris-HCl pH 8.5, 42°C, apparent, pH 8.5
purified protein [5] = substrate: NC(=O)c1ccc[n+]([C@@H]2O[C@H](COP(=O)(O)OP(=O)(O)OC[C@H]3O[C@@H](n4cnc5c(N)ncnc54)[C@H](OP(=O)(O)O)[C@@H]3O)[C@@H](O)[C@H]2O)c1; assay: purified protein; assay type: biochemical, Methylobacillus flagellatus; conditions: saturating DL-isocitrate, Mn2+, 100 mM Bis-Tris-HCl pH 6.0, 42°C, apparent, pH 6.0

**Q.** “recombinant 6x-His-tagged isocitrate dehydrogenase from Methylobacillus flagellatus (enzyme)” was tested. Which stoichiometry N [1] did it give?
**A.** Its stoichiometry N is 2.

**Q.** With `Nc1ncnc2c1ncn2[C@@H]1O[C@H](COP(=O)(O)OP(=O)(O)OP(=O)(O)O)[C@@H](O)[C@H]1O` [ATP] as the molecule, how does the inhibition at 2000 µM (MfIDH) read?
**A.** Its inhibition at 2000 µM is 50%.

**Q.** “native isocitrate dehydrogenase from Methylobacillus flagellatus (enzyme)” was tested. Which stoichiometry N [2] did it give?
**A.** The stoichiometry N was 2.

B1: MfIDH (Methylobacillus flagellatus KT) (protein)
chain: T1 sequence (Q1GZD1 1-413)
notes: native enzyme purified from M. flagellatus cells, untagged; 413 residues; homodimer (recombinant N-terminal 6xHis form said to be essentially the same)
**Q.** How did the Km (purified protein [3]) turn out when B1 was run?
**A.** The Km was 9.0 µM.

**Q.** What about the Km (purified protein [4]) of the same molecule?
**A.** Its Km is 113 µM.

**Q.** And the kcat (purified protein [4])?
**A.** Its kcat is 166 s⁻¹.

**Q.** What about the kcat/Km (purified protein [4]) of the same molecule?
**A.** The kcat/Km was 1.5e+06 M⁻¹ s⁻¹.

**Q.** What about the Km (purified protein [5]) of the same molecule?
**A.** The Km was 184 µM.

**Q.** What about the kcat (purified protein [5]) of the same molecule?
**A.** Its kcat is 56 s⁻¹.

**Q.** What about the kcat/Km (purified protein [5]) of the same molecule?
**A.** The kcat/Km was 300000 M⁻¹ s⁻¹.
